From article PMC6056499, “A systematic dissection of sequence elements determining β-Klotho and FGF interaction and signaling” (Scientific Reports, 2018) come the findings set out here.

The experiment concerns the target human β-Klotho extracellular domain (aa1–992) fused with a 6 × His tag at the C-terminus (UniProt Q86Z14). The experiment in a line: solid-phase binding assay. As to conditions: parent: est. 1.0; read off a plot.

Sequence of human β-Klotho extracellular domain (aa1–992) fused with a 6 × His tag at the C-terminus (Q86Z14 53-992): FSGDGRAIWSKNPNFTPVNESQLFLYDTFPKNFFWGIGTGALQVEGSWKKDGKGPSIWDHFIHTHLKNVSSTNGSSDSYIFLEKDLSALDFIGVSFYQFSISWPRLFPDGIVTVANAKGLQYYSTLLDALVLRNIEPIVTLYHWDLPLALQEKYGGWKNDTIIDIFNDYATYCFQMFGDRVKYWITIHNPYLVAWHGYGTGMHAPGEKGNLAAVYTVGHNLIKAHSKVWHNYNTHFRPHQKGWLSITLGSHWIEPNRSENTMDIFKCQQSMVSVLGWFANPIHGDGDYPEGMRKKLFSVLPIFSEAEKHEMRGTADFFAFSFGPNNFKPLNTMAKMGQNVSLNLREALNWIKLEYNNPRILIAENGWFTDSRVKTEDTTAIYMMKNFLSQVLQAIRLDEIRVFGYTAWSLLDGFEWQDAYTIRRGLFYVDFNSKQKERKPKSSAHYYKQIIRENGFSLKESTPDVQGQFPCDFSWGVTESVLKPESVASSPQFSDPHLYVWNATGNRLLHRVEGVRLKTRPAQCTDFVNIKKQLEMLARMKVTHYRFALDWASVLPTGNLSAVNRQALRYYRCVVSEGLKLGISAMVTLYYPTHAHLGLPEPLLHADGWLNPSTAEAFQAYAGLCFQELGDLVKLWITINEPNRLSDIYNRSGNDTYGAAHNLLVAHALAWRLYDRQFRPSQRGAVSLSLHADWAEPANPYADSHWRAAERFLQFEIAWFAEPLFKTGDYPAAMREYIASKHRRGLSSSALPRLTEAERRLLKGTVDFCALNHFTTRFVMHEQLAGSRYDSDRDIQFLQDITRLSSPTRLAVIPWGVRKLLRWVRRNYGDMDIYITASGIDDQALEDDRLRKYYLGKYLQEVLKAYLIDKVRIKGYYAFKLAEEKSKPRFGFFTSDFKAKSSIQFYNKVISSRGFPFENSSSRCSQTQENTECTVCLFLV
Sequence of mature human FGF21 polypeptide fused with the human Fc fragment at the N-terminus (Fc-FGF21), wild type (from UniProt Q9NSA1) 169G-R (Q9NSA1 29-209, change not shown): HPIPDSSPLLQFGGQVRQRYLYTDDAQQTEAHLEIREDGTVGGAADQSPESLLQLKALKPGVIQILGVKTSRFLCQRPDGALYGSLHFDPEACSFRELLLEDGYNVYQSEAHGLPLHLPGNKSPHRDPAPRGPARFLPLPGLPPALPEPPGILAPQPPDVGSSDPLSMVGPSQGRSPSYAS
Sequence of mature human FGF21 polypeptide fused with the human Fc fragment at the N-terminus (Fc-FGF21), wild type (from UniProt Q9NSA1) 195S-A (Q9NSA1 29-209, change not shown): as above
Sequence of mature human FGF21 polypeptide fused with the human Fc fragment at the N-terminus (Fc-FGF21), wild type (from UniProt Q9NSA1) 202G-R (Q9NSA1 29-209, change not shown): as above
Sequence of mature human FGF21 polypeptide fused with the human Fc fragment at the N-terminus (Fc-FGF21), wild type (from UniProt Q9NSA1) 176E-R (Q9NSA1 29-209, change not shown): as above
Sequence of mature human FGF21 polypeptide fused with the human Fc fragment at the N-terminus (Fc-FGF21), wild type (from UniProt Q9NSA1) 177P-A (Q9NSA1 29-209, change not shown): as above
Sequence of mature human FGF21 polypeptide fused with the human Fc fragment at the N-terminus (Fc-FGF21), wild type (from UniProt Q9NSA1) 198G-R (Q9NSA1 29-209, change not shown): as above
Sequence of mature human FGF21 polypeptide fused with the human Fc fragment at the N-terminus (Fc-FGF21), wild type (from UniProt Q9NSA1) 180I-A (Q9NSA1 29-209, change not shown): as above
Sequence of mature human FGF21 polypeptide fused with the human Fc fragment at the N-terminus (Fc-FGF21), wild type (from UniProt Q9NSA1) 167L-R (Q9NSA1 29-209, change not shown): as above
Sequence of mature human FGF21 polypeptide fused with the human Fc fragment at the N-terminus (Fc-FGF21), wild type (from UniProt Q9NSA1) 170L-R (Q9NSA1 29-209, change not shown): as above
Sequence of mature human FGF21 polypeptide fused with the human Fc fragment at the N-terminus (Fc-FGF21), wild type (from UniProt Q9NSA1) 200S-R (Q9NSA1 29-209, change not shown): as above
Sequence of mature human FGF21 polypeptide fused with the human Fc fragment at the N-terminus (Fc-FGF21), wild type (from UniProt Q9NSA1) 177P-R (Q9NSA1 29-209, change not shown): as above
Sequence of mature human FGF21 polypeptide fused with the human Fc fragment at the N-terminus (Fc-FGF21), wild type (from UniProt Q9NSA1) 205P-R (Q9NSA1 29-209, change not shown): as above
Sequence of mature human FGF21 polypeptide fused with the human Fc fragment at the N-terminus (Fc-FGF21), wild type (from UniProt Q9NSA1) 201Q-R (Q9NSA1 29-209, change not shown): as above
Sequence of mature human FGF21 polypeptide fused with the human Fc fragment at the N-terminus (Fc-FGF21), wild type (from UniProt Q9NSA1) 189G-R (Q9NSA1 29-209, change not shown): as above
Sequence of mature human FGF21 polypeptide fused with the human Fc fragment at the N-terminus (Fc-FGF21), wild type (from UniProt Q9NSA1) 183P-A (Q9NSA1 29-209, change not shown): as above
Sequence of mature human FGF21 polypeptide fused with the human Fc fragment at the N-terminus (Fc-FGF21), wild type (from UniProt Q9NSA1) 200S-A (Q9NSA1 29-209, change not shown): as above
Sequence of mature human FGF21 polypeptide fused with the human Fc fragment at the N-terminus (Fc-FGF21), wild type (from UniProt Q9NSA1) 203R-A (Q9NSA1 29-209, change not shown): as above
Sequence of mature human FGF21 polypeptide fused with the human Fc fragment at the N-terminus (Fc-FGF21), wild type (from UniProt Q9NSA1) 166P-R (Q9NSA1 29-209, change not shown): as above
Sequence of mature human FGF21 polypeptide fused with the human Fc fragment at the N-terminus (Fc-FGF21), wild type (from UniProt Q9NSA1) 190S-A (Q9NSA1 29-209, change not shown): as above
Sequence of mature human FGF21 polypeptide fused with the human Fc fragment at the N-terminus (Fc-FGF21), wild type (from UniProt Q9NSA1) 199P-A (Q9NSA1 29-209, change not shown): as above

Regarding “mature human FGF21 polypeptide fused with the human Fc fragment at the N-terminus (Fc-FGF21), wild type (from UniProt Q9NSA1) 205P-R”, the ratio to parent worked out at 220.

As to “mature human FGF21 polypeptide fused with the human Fc fragment at the N-terminus (Fc-FGF21), wild type (from UniProt Q9NSA1) 166P-R”, the ratio to parent is 2.6.

With “mature human FGF21 polypeptide fused with the human Fc fragment at the N-terminus (Fc-FGF21), wild type (from UniProt Q9NSA1) 209S-R”, the ratio to parent was 1.6.

Consider “mature human FGF21 polypeptide fused with the human Fc fragment at the N-terminus (Fc-FGF21), wild type (from UniProt Q9NSA1) 179G-R”, for which the ratio to parent amounted to 1.

For “mature human FGF21 polypeptide fused with the human Fc fragment at the N-terminus (Fc-FGF21), wild type (from UniProt Q9NSA1) 183P-A”, the ratio to parent came out at 0.8.

As for “mature human FGF21 polypeptide fused with the human Fc fragment at the N-terminus (Fc-FGF21), wild type (from UniProt Q9NSA1) 201Q-A”, the ratio to parent was found to be 0.6.

Consider “mature human FGF21 polypeptide fused with the human Fc fragment at the N-terminus (Fc-FGF21), wild type (from UniProt Q9NSA1) 174P-A”, for which the ratio to parent came out at 0.6.

In the case of “mature human FGF21 polypeptide fused with the human Fc fragment at the N-terminus (Fc-FGF21), wild type (from UniProt Q9NSA1) 168P-R”, the ratio to parent turned out to be 1.2.

On to “mature human FGF21 polypeptide fused with the human Fc fragment at the N-terminus (Fc-FGF21), wild type (from UniProt Q9NSA1) 184Q-A”, for which the ratio to parent was determined as 1.2.

For the substance “mature human FGF21 polypeptide fused with the human Fc fragment at the N-terminus (Fc-FGF21), wild type (from UniProt Q9NSA1) 172P-R”, the ratio to parent was determined as 1.5.

As for “mature human FGF21 polypeptide fused with the human Fc fragment at the N-terminus (Fc-FGF21), wild type (from UniProt Q9NSA1) 201Q-R”, the ratio to parent worked out at 1.

As for “mature human FGF21 polypeptide fused with the human Fc fragment at the N-terminus (Fc-FGF21), wild type (from UniProt Q9NSA1) 171P-A”, the ratio to parent worked out at 1.2.

For “mature human FGF21 polypeptide fused with the human Fc fragment at the N-terminus (Fc-FGF21), wild type (from UniProt Q9NSA1) 165L-A”, the ratio to parent was 1.

Turning to “mature human FGF21 polypeptide fused with the human Fc fragment at the N-terminus (Fc-FGF21), wild type (from UniProt Q9NSA1) 203R-A”, the ratio to parent was 2.

With “mature human FGF21 polypeptide fused with the human Fc fragment at the N-terminus (Fc-FGF21), wild type (from UniProt Q9NSA1) 173A-R”, the ratio to parent came to 0.6.

Take “mature human FGF21 polypeptide fused with the human Fc fragment at the N-terminus (Fc-FGF21), wild type (from UniProt Q9NSA1) 174P-R”: the ratio to parent amounted to 1.3.

In the case of “mature human FGF21 polypeptide fused with the human Fc fragment at the N-terminus (Fc-FGF21), wild type (from UniProt Q9NSA1) 200S-A”, the ratio to parent was 0.8.

Turning to “mature human FGF21 polypeptide fused with the human Fc fragment at the N-terminus (Fc-FGF21), wild type (from UniProt Q9NSA1) 175P-A”, the ratio to parent came to 0.5.

With “mature human FGF21 polypeptide fused with the human Fc fragment at the N-terminus (Fc-FGF21), wild type (from UniProt Q9NSA1) 176E-R”, the ratio to parent turned out to be 1.6.

For the substance “mature human FGF21 polypeptide fused with the human Fc fragment at the N-terminus (Fc-FGF21), wild type (from UniProt Q9NSA1) 200S-R”, the ratio to parent is 2.

For the substance “mature human FGF21 polypeptide fused with the human Fc fragment at the N-terminus (Fc-FGF21), wild type (from UniProt Q9NSA1) 195S-A”, the ratio to parent came to 3.

Take “mature human FGF21 polypeptide fused with the human Fc fragment at the N-terminus (Fc-FGF21), wild type (from UniProt Q9NSA1) 202G-R”: the ratio to parent is 4.8.

Turning to “mature human FGF21 polypeptide fused with the human Fc fragment at the N-terminus (Fc-FGF21), wild type (from UniProt Q9NSA1) 187D-A”, the ratio to parent was determined as 14.

For the substance “mature human FGF21 polypeptide fused with the human Fc fragment at the N-terminus (Fc-FGF21), wild type (from UniProt Q9NSA1) 181L-A”, the ratio to parent is 0.5.

As to “mature human FGF21 polypeptide fused with the human Fc fragment at the N-terminus (Fc-FGF21), wild type (from UniProt Q9NSA1) 182A-R”, the ratio to parent is 1.4.

For “mature human FGF21 polypeptide fused with the human Fc fragment at the N-terminus (Fc-FGF21), wild type (from UniProt Q9NSA1) 199P-R”, the ratio to parent came out at 1.2.

With “mature human FGF21 polypeptide fused with the human Fc fragment at the N-terminus (Fc-FGF21), wild type (from UniProt Q9NSA1) 171P-R”, the ratio to parent was determined as 1.2.

For the substance “mature human FGF21 polypeptide fused with the human Fc fragment at the N-terminus (Fc-FGF21), wild type (from UniProt Q9NSA1) 169G-R”, the ratio to parent was 2.2.

Consider “mature human FGF21 polypeptide fused with the human Fc fragment at the N-terminus (Fc-FGF21), wild type (from UniProt Q9NSA1) 178P-R”, for which the ratio to parent amounted to 1.2.

Take “mature human FGF21 polypeptide fused with the human Fc fragment at the N-terminus (Fc-FGF21), wild type (from UniProt Q9NSA1) 185P-A”: the ratio to parent was 1.3.

Take “mature human FGF21 polypeptide fused with the human Fc fragment at the N-terminus (Fc-FGF21), wild type (from UniProt Q9NSA1) 167L-R”: the ratio to parent was 1.

As for “mature human FGF21 polypeptide fused with the human Fc fragment at the N-terminus (Fc-FGF21), wild type (from UniProt Q9NSA1) 190S-A”, the ratio to parent was determined as 15.

Regarding “mature human FGF21 polypeptide fused with the human Fc fragment at the N-terminus (Fc-FGF21), wild type (from UniProt Q9NSA1) 199P-A”, the ratio to parent came out at 1.

Consider “mature human FGF21 polypeptide fused with the human Fc fragment at the N-terminus (Fc-FGF21), wild type (from UniProt Q9NSA1) 177P-A”, for which the ratio to parent turned out to be 1.

On to “mature human FGF21 polypeptide fused with the human Fc fragment at the N-terminus (Fc-FGF21), wild type (from UniProt Q9NSA1) 172P-A”, for which the ratio to parent came to 0.5.

Turning to “mature human FGF21 polypeptide fused with the human Fc fragment at the N-terminus (Fc-FGF21), wild type (from UniProt Q9NSA1) 180I-A”, the ratio to parent worked out at 0.6.

Regarding “mature human FGF21 polypeptide fused with the human Fc fragment at the N-terminus (Fc-FGF21), wild type (from UniProt Q9NSA1) 202G-A”, the ratio to parent is 1.8.

“mature human FGF21 polypeptide fused with the human Fc fragment at the N-terminus (Fc-FGF21), wild type (from UniProt Q9NSA1) 189G-R”: the ratio to parent amounted to 1.2.

In the case of “mature human FGF21 polypeptide fused with the human Fc fragment at the N-terminus (Fc-FGF21), wild type (from UniProt Q9NSA1) 170L-R”, the ratio to parent came out at 1.

“mature human FGF21 polypeptide fused with the human Fc fragment at the N-terminus (Fc-FGF21), wild type (from UniProt Q9NSA1) 198G-R”: the ratio to parent was 0.5.

On to “mature human FGF21 polypeptide fused with the human Fc fragment at the N-terminus (Fc-FGF21), wild type (from UniProt Q9NSA1) 177P-R”, for which the ratio to parent amounted to 1.2.

Regarding “mature human FGF21 polypeptide fused with the human Fc fragment at the N-terminus (Fc-FGF21), wild type (from UniProt Q9NSA1) 180I-R”, the ratio to parent was 2.3.
